Reference: patent US20020081601A1, “Methods and compositions for diagnosis and treatment of cancer based on the transcription factor ets2” (MUSC Foundation For Research Development., priority 1998, published 2002)

Test system: DU145
Assay: Soft agar growth assay (anchorage independent growth)
Format: cell-based, human
Conditions: DN-ETS2 transfectants vs DU145 parental; after three weeks
Experimental: Soft agar growth assays were performed in six-well plates (35-mm wells). Cells (20,000) were plated in 0.4% agar (Sigma) in RPMI 1640 supplemented with 10% FBS. An underlayer of 0.8% agar was used to prevent attachment of cells. Triplicate assays initiated with 20,000 cells were fed weekly by agar overlay and scored after 3 weeks. The soft agar assays were performed twice, independently.

B1: DN-ETS2: dominant negative ETS2 mutant: DNA binding domain (C-terminal amino acids 334-469) of human ETS2, expressed from pDN-ETS2 (protein, UniProt P15036 334-469, looked up, fragment)
chain: YIQERSDPVEQGKPVIPAAVLAGFTGSGPIQLWQFLLELLSDKSCQSFISWTGDGWEFKLADPDEVARRWGKRKNKPKMNYEKLSRGLRYYYDKNIIHKTSGKRYVYRFVCDLQNLLGFTPEELHAILGVQPDTED
anchorage-independent growth in soft agar: do not grow well in soft agar
